From US20220073646A1 (Hoffmann-La Roche, published 2022)

Experiments:
human OX40 on cells [1] = target: T1, human OX40 on cells (human, UniProt P43489 29-277); assay: cell-based or functional assay
T1 sequence: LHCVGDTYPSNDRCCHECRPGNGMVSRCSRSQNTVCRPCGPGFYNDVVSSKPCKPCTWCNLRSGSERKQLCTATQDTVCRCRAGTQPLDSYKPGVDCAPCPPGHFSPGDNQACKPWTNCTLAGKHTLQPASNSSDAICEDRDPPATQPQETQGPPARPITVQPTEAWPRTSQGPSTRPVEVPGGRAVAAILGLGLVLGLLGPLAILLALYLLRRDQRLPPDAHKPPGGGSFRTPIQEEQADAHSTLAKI

[2] = target: T2, human fibroblast activation protein (huFAP) on cells (human, UniProt Q12884 1-760); assay: flow cytometry, NIH/3T3-huFAP clone 39 cells
T2 construct: also called NIH/3T3-huFAP clone 39; NIH/3T3-huFAP clone 19

[3] = target: T3, cynomolgus OX40 on activated cynomolgus PBMC (cynomolgus, UniProt P43489 29-214 (human entry)); assay: flow cytometry, activated cynomolgus CD4 T cells
T3 construct: whole, on cells
T3 chain: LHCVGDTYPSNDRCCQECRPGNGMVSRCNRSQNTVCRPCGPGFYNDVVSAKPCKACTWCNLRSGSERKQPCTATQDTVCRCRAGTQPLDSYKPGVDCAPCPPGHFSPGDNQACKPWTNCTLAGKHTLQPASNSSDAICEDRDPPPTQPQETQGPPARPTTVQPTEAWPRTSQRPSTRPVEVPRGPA
Protocol: Centrifugation was performed at 520×g, without brake at room temperature for 30 minutes. Adjacent centrifugation at 150×g at room temperature for 15 minutes was performed to reduce platelets count followed by several centrifugation steps with 400×g at room temperature for 10 minutes to wash PBMC with sterile DPBS.
Then, plates were washed four times with 200 μL/well 4° C. FACS buffer. […] Plates where washed twice with 200 μL/well 4° C.

[4] = target: T4, recombinant human OX40 His (human); assay: SPR, captured IgG, OX40 His analyte
T4 construct: ectodomain with avi and hexahistidine tag; also called human Ox40 avi His
T4 chain: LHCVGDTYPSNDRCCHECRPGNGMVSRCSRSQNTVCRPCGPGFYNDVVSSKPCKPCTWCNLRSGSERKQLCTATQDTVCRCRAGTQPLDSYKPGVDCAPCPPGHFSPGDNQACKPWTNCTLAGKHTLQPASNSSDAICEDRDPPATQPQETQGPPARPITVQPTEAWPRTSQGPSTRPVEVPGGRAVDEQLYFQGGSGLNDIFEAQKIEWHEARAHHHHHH
Protocol: (§1) All SPR experiments were performed on a Biacore T200 at 25° C. with HBS-EP as running buffer (0.01 M HEPES pH 7.4, 0.15 M NaCl, 3 mM EDTA, 0.005% Surfactant P20, Biacore, Freiburg/Germany).
Setup 2) Anti-human Fc antibody (Biacore, Freiburg/Germany) was directly coupled on a CM5 chip at pH 5.0 using the standard amine coupling kit (Biacore, Freiburg/Germany). The immobilization level was approximately 8000 RU. […] The dissociation was monitored for 120 seconds. Bulk refractive index differences were corrected for by subtracting the response obtained on reference flow cell.

human OX40 on cells [5] = target: T1, human OX40 on cells; assay: cell-based or functional assay; remark: listed apart in the source
[6] = target: recombinant cynomolgus OX40 Fc(kih) (cynomolgus, UniProt P0DOX5 223-449 = IgG part, biotin on C-terminal Avi tag where used biotinylated); assay: SPR avidity format, antigen on SA chip
Protocol: as §1
Immobilization levels up to 800 resonance units (RU) were used.

EC50 of rescuing suboptimal TCR stimulation with plate-immobilized anti-OX40 binder (preactivated human CD4 T cells) (human OX40 on cells [1]): 0.697 nM
binding result [2]: no binding
EC50 [3]: 48.2 nM
Kd [4]: 250 nM
koff [4]: 0.57 s⁻¹
kon [4]: 2.3e+06 M⁻¹ s⁻¹
EC50 of NFκB activation in HeLa_hOx40_NFκB_luc1 reporter cells with secondary anti-human IgG Fcγ antibody (human OX40 on cells [5]): 3.59 nM
binding result [6]: binds
B1: 1G4 P329GLALA IgG1 (antibody, V domains shown)
VH: QVQLVQSGAEVKKPGSSVKVSCKASGGTFSSYAISWVRQAPGQGLEWMGGIIPIFGTANYAQKFQGRVTITADKSTSTAYMELSSLRSEDTAVYYCAREYGSMDYWGQGTTVTVSS
VL: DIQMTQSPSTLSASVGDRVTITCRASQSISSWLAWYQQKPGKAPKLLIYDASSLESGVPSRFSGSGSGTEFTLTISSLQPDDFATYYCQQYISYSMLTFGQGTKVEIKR
notes: anti-OX40
